Measurements as given in the supplement of paper PMC9112550, “Optimization of the antimicrobial peptide Bac7 by deep mutational scanning” (BMC Biology, 2022).

Test system: Escherichia coli TOP10
Assay: shrunken log2 fold change of peptide-encoding DNA abundance (4.5 h post-induction vs induction); higher = less antimicrobial activity (less host growth inhibition)
Details: time post-induction: 4.5 h; library: site-saturation at positions 5, 18, 19, 20
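Note: peptides expressed intracellularly from a pBAD plasmid library in pooled LB shake-flask culture, induced with 0.3% L-arabinose, DNA abundance read by NGS, three biological replicates, DESeq2 with apeglm shrinkage.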

Row | Sequence | shrunken log2 fold change
1 | RRIRERPPRLPRPRPRPNYFPRP | -0.57
2 | RRIRERPPRLPRPRPRPDCGPRP | 0.0191
3 | RRIRARPPRLPRPRPRPNHNPRP | -0.542
4 | RRIRNRPPRLPRPRPRPPSMPRP | -0.0213
5 | RRIRGRPPRLPRPRPRPAIVPRP | 0.0899
6 | RRIRDRPPRLPRPRPRPNLLPRP | -0.0507
7 | RRIRWRPPRLPRPRPRPRRNPRP | 0.0585
8 | RRIRGRPPRLPRPRPRPDSPPRP | 0.136
9 | RRIRKRPPRLPRPRPRPVRWPRP | 0.809
10 | RRIRARPPRLPRPRPRPWMAPRP | 0.0631
11 | RRIRIRPPRLPRPRPRPEDTPRP | 0.0265
12 | RRIRARPPRLPRPRPRPLMMPRP | 0.205
13 | RRIRARPPRLPRPRPRPHKSPRP | 0.42
14 | RRIRRRPPRLPRPRPRPWESPRP | 0.0904
15 | RRIRMRPPRLPRPRPRPKQMPRP | 1.25
16 | RRIRMRPPRLPRPRPRPYPDPRP | -0.0456
17 | RRIRGRPPRLPRPRPRPKGWPRP | 1.46
